Laboratory results from paper doi:10.1101/630269.

Target: Dendritic cell-specific ICAM-3 grabbing non-integrin (DC-SIGN, CD209) (human) (UniProt Q9NNX6)
Assay: virion-cell binding assay

Sequence of UniProt Q9NNX6 (Q9NNX6 whole entry): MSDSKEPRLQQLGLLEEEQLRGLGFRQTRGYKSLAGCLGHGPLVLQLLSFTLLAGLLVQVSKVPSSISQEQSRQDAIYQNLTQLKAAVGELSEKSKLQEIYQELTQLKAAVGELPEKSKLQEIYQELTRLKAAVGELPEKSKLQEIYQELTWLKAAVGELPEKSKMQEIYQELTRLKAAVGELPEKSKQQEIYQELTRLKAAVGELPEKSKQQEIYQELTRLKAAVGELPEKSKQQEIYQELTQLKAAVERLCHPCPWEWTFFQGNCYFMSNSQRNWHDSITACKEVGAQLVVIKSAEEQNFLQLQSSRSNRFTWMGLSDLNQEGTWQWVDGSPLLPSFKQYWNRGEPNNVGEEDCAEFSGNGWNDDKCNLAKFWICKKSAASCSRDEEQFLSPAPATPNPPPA

With “EBOV Makona glycoprotein GP-V82 (natural protein)” as the substance, how does the fold binding relative to GP-A82 read?
The fold binding relative to GP-A82 was 2 fold.
